One block for each binder: values may come before it.
Assays:
[1] = target: T1, mature TGFα (R&D Systems, 239-A) (human, UniProt P01135 40-89); test: ELISA on immobilized mature TGFα, COS-7 supernatant
[2] = target: T1, mature TGFα (R&D Systems, 239-A); test: ELISA on immobilized TGFα (R&D Systems, 239-A)
[3] = target: T1, mature TGFα (R&D Systems, 239-A); test: ELISA on immobilized mature TGFα (R&D Systems, 239-A)

B1: #2-20 mouse chimeric IgG2a recombinant antibody (#2-20 VH/VL with mouse IgG2a constant region) (antibody)
heavy: DVQLQESGPGLVKPSQSLSLTCTVTGYSITSDYAWNWIRLFPGNKLEWMGFINYSGNTSYNPSLKSRISITRDTSKNQFFLKLNSLTTDDTATYYCARGGLSRFPYWGQGTLVTVSAAKTTAPSVYPLAPVCGGTTGSSVTLGCLVKGYFPEPVTLTWNSGSLSSGVHTFPALLQSGLYTLSSSVTVTSNTWPSQTITCNVAHPASSTKVDKKIEPRVPITQNPCPPLKECPPCAAPDLLGGPSVFIFPPKIKDVLMISLSPMVTCVVVDVSEDDPDVQISWFVNNVEVHTAQTQTHREDYNSTLRVVSALPIQHQDWMSGKEFKCKVNNRALPSPIEKTISKPRGPVRAPQVYVLPPPAEEMTKKEFSLTCMITGFLPAEIAVDWTSNGRTEQNYKNTATVLDSDGSYFMYSKLRVQKSTWERGSLFACSVVHEGLHNHLTTKTISRSLGK
light: DIQMTQTTSSLSASLGDRVTISCRSSQDIRNYLNWYQQKPDGTVKLLIYYTSRSHSGVPSRFSGSGSGTDYSLTISNLEQEDIATYFCQQGNMFPFTFGGGTKLEIKRADAAPTVSIFPPSSEQLTSGGASVVCFLNNFYPKDINVKWKIDGSERQNGVLNSWTDQDSKDSTYSMSSTLTLTKDEYERHNSYTCEATHKTSTSPIVKSFNRNEC
notes: Transiently expressed in COS-7 and tested as culture supernatant; also called recombinant mouse chimeric IgG2a antibody; mouse IgG2a antibody
- binding result [1]: binds

B2: #2-20 recombinant human chimeric antibody (#2-20 VH/VL with human IgG1 constant region) (antibody)
heavy: not shown
light: DIQMTQTTSSLSASLGDRVTISCRSSQDIRNYLNWYQQKPDGTVKLLIYYTSRSHSGVPSRFSGSGSGTDYSLTISNLEQEDIATYFCQQGNMFPFTFGGGTKLEIKRTVAAPSVFIFPPSDEQLKSGTASVVCLLNNFYPREAKVQWKVDNALQSGNSQESVTEQDSKDSTYSLSSTLTLSKADYEKHKVYACEVTHQGLSSPVTKSFNRGEC
notes: Transiently expressed in COS-7 and tested as culture supernatant
- binding result [1]: binds

Results, then the binder that gave them:

- binding result [2]: binds
B3: EP19 monoclonal antibody (mouse hybridoma anti-EREG antibody) (antibody, V domains shown)
VH: EVQLQQSGPELEKPGASVKISCKASGYSFTGYNMNWVKQSNGKSLEWIGNIDPYYGAASYNQKFKGKATLTVDKSSSTAYMQLKSLTSEDSAVYYCARSQLPYWYFDVWGAGTTVTVSS
VL: DIVMTQSPSSLTVTAGEKVTMSCKSSQSLLNSGNQKNYLTWYQQKPGQPPKLLIYWASTRESGVPDRFTGSGSGTDFTLTISSVQAEDLAVYYCQNDYSYPYTFGGGTKLEIK
notes: Hybridoma antibody from WO 2008/047723; The variable region entries may include leader residues; also called EP19 antibody

- binding result [3]: binds
B4: mouse hybridoma anti-TGFα antibody #2-20 (antibody, V domains shown)
VH: DVQLQESGPGLVKPSQSLSLTCTVTGYSITSDYAWNWIRLFPGNKLEWMGFINYSGNTSYNPSLKSRISITRDTSKNQFFLKLNSLTTDDTATYYCARGGLSRFPYWGQGTLVTVSA
VL: DIQMTQTTSSLSASLGDRVTISCRSSQDIRNYLNWYQQKPDGTVKLLIYYTSRSHSGVPSRFSGSGSGTDYSLTISNLEQEDIATYFCQQGNMFPFTFGGGTKLEIK
notes: Mouse IgG purified from hybridoma supernatant; also called #2-20 antibody; mouse #2-20 antibody

Reference: patent publication US20120141501A1 (Chugai, published 2012)
